From patent US20170267737A1 (published 2017) come the findings set out here.

This assay deals with T1, glypican-3 (GPC3) peptide on HLA-A*02:01 (human).
T1 peptide: FIDKKVLKV
Nature of the assay: multimer staining.

B1: TCR P1-1 (TCR, V domains shown)
Valpha: AQSVTQPDIHITVSEGASLELRCNYSYGATPYLFWYVQSPGQGLQLLLKYFSGDTLVQGIKGFEAEFKRSQSSFNLRKPSVHWSDAAEYFCAVGVLNFGNEKLTFGTGTRLTIIP
Vbeta: SQTIHQWPATLVQPVGSPLSLECTVEGTSNPNLYWYRQAAGRGLQLLFYSVGIGQISSEVPQNLSASRPQDRQFILSSKKLLLSDSGFYLCAWSEDTAYYGYTFGSGTRLTVV
B1: the binding result is listed as “recognises”.
